In patent publication US20110172153A1:
Ends that are not written are not given here.

Target: PTH receptor, R^0 and RG conformations (species not stated at the figure legends) (Homo sapiens (Human)) (UniProt Q03431)
Experiment: R0 binding affinity in vitro, table inset of FIG. 18; reference [E19],Mc-hPTH(1-34)OH

fold reduction of binding affinity for R^0 against [E^19 Mc]PTH(1-34): 10 fold
B1: [A^23,E^19],Mc-hPTH(1-34)OH (peptide)
peptide: AVAEIQLMHQRAKWLNSMERVEALRKKLQDVHNF-OH
